Results: publication PMC12474298 (2025)
Where no end group is shown, it is not given here.

Tests used:
Assay in all cases: FP
[1] = biological target: IMPα1 minor site mutant E396R (human)
[2] = biological target: IMPα1 major site mutant D192K (human)
[3] = biological target: human importin α1 lacking the importin-β binding domain (hIMPα1ΔIBB) (human)

B1: HaHV1 UL36h NLS peptide (residues 1491-1500), FITC/Ahx-labelled (peptide)
peptide: ETKKRRRILE
modifications: not fully specified (N-terminus); also: FITC/Ahx-labelled, position not given here
Kd [1]: 1760 nM | Kd [2]: 3550 nM | Kd [3]: 362 nM
